Measurements from patent US20240301071A1 (Alector, published 2024).
Substitutions are numbered along the chain they refer to.

Legend:
[1] = target: T1, human SIRPA v1 on BWZ cells (BWZ-huSIRPA) (human, UniProt P78324 31-504); test: flow cytometry titration on BWZ cells overexpressing huSIRPA, 4 C
T1 construct: also called BWZ cells overexpressing human SIRPA; BWZ-huSIRPA v1 cells
Protocol: Receptor bound antibodies were detected by staining cells with anti-mouse IgG Fc APC or anti-human IgG PE secondary antibody. Serial dilutions of the monoclonal antibodies were added to 10⁵ BWZ cells overexpressing huSIRPA (BWZ-huSIRPA) and allowed to achieve binding equilibrium at 4° C. After addition of fluorescently labeled secondary antibody and brief washing steps, mean fluorescent intensity (MFI) values as a function of titrated antibody concentration was recorded via FACS analysis. Curves were fit using nonlinear regression analysis with Graphpad Prism 6 software.

[2] = target: T1, human SIRPA v1 on BWZ cells …; test: flow cytometry competition on BWZ-huSIRPA v1 cells, competitor: fluorophore-labelled reference m3F9
Source text: IC50 values provide another comparison of relative affinity.

[3] = target: T2, histidine-tagged human SIRPA (Sino Biological) (human, UniProt P78324 31-370); test: BLI (Octet RED96), antibody captured on anti-human IgG Fc sensor, His-tagged SIRPA in solution, 1:1 model
T2 construct: bought, soluble; also called histidine-tagged huSIRPA isoform 1; soluble SIRPA antigen; not shown: histidine tag
Protocol: (§1) Affinity measurements for the anti-SIRPA antibodies were performed as follows. Bio-layer interferometry (BLI) data were collected on a Pall ForteBio Octet RED96 instrument. Data analysis was performed using ForteBio Data Analysis Software, version 9.0. Standard kinetic buffer (PBS, 0.100 BSA, 0.02% Tween-20, pH 7.2) was used for the assay and for preparing reagents. […] Varying concentrations (0-200 nM) of histidine-tagged human SIRPA (Sino Biological, Beijing, China) were then bound to the captured anti-SIRPA surface (300 s association time, 600 s dissociation time). The resulting BLI signal was obtained as the difference in response from the reference (2.5 μg/mL IgG+0 nM SIRPA) sensor. […] Multi-concentration kinetic analysis was performed using a 1:1 interaction model to extract association and dissociation rate constants (ka and kd, respectively) for each antibody. Binding affinity constants (KD) were calculated from the ratio kd/ka.
(§2) Best-fit traces from the resulting sensorgrams were analyzed to calculate association rate, dissociation rate, and affinity values.

[4] = target: T3, CynoSIRPA (NP_001271679.1) (cynomolgus, UniProt A0A2K5VYQ9 31-507); test: ELISA, plate coated with SIRP protein
T3 sequence: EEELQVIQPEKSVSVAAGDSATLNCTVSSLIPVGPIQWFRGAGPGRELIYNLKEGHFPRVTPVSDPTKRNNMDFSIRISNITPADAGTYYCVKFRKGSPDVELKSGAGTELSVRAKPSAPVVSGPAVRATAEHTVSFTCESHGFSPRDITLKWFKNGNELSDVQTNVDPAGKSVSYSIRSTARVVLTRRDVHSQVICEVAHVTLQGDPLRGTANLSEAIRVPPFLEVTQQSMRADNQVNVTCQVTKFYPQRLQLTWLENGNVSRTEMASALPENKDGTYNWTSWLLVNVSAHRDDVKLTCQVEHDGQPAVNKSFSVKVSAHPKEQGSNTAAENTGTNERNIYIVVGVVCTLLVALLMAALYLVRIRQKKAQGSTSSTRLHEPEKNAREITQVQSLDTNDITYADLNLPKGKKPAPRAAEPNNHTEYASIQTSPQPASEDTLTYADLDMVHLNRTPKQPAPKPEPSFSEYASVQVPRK
Protocol: (§3) In an ELISA assay, 96-well Immulon HBX plates were coated with His- or Fc-tagged SIRPA of a given species, as indicated, at 1 μg/mL in PBS overnight at 4C. Plates were blocked in 5% (w/v) bovine serum albumin in PBS for 1 hour, after which they were washed 3 times with PBS/0.05% Tween 20 (PBS/T). Anti-SIRPA antibodies were added to the plate in a dilution series and were incubated at room temperature for 2 hours, after which the unbound antibody was removed by washing with PBS/T. Horseradish peroxidase-conjugated anti-mouse IgG or anti-human kappa light chain (Jackson Immunoresearch) was then added to the wells and incubated for 30 minutes. Unbound antibody was removed by washing with PBS/T, after which bound antibody was detected using tetramethylbenzidine (TMB). The reaction was stopped with 2N H₂SO₄, after which the plates were read at A450.

huSIRPA v.2 NP542970.1 = target: T4, huSIRPA v.2 NP542970.1 (human, UniProt P78324 31-373, limits assumed); test: ELISA, plate coated with tagged SIRPA at 1 ug/mL
T4 construct: see m48; also called human SIRPA v2; human SIRPA-Fc (v2)
Protocol: as §3

cynoSIRPA XPO15313153.1 = target: T5, cynoSIRPA XPO15313153.1 (cynomolgus, UniProt A0A2K5VYQ9); test: ELISA, plate coated with tagged SIRPA at 1 ug/mL
T5 construct: not tied one by one in the text; also called cynomolgus SIRPA; not shown: Fc or His tag
T5 sequence: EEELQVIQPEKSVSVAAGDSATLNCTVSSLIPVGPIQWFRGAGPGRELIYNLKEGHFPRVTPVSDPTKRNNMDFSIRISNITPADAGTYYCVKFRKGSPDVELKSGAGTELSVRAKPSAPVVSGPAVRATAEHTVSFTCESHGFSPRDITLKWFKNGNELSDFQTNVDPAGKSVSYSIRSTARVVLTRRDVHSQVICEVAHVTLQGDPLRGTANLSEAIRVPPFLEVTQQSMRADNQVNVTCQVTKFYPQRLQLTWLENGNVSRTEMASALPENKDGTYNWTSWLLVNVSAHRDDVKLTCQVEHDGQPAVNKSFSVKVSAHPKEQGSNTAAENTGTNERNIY
Protocol: as §3

rat SIRPA = target: T6, rat SIRPA (rat, UniProt P97710 32-373, limits assumed); test: ELISA, plate coated with tagged SIRPA at 1 ug/mL
T6 sequence (looked up): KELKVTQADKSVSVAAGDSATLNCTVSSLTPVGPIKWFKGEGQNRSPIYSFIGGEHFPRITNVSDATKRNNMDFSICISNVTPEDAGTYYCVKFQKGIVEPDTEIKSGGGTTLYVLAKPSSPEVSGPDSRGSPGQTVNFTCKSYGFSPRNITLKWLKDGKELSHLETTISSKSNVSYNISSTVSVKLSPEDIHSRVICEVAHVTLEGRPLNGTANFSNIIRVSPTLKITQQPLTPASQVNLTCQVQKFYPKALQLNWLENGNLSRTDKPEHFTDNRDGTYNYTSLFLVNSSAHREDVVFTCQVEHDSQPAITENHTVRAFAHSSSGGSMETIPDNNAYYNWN
Protocol: as §3

[5] = target: T1, human SIRPA v1 on BWZ cells …; test: flow cytometry titration on BWZ-huSIRPA cells, 4 C
Protocol: After addition of fluorescently labeled secondary antibody and brief washing steps, MFI values as a function of titrated antibody concentration was recorded via FACS analysis. […] Receptor bound antibodies were detected by staining cells with anti-human IgG PE secondary antibody. Curves were fit using nonlinear regression analysis with Graphpad Prism 6 software.

[6] = target: T2, histidine-tagged human SIRPA (Sino …); test: BLI (Octet RED96), antibody captured on anti-mouse IgG Fc sensor, His-tagged SIRPA in solution, 1:1 model
Protocol: as §1, §2

[7] = target: T7, human SIRPA on human macrophages (primary monocyte-derived macrophages; U937 line) (human, UniProt P78324 31-504); test: cell-based or functional assay
[8] = target: T7, human SIRPA on human macrophages …; test: cell-based or functional assay; remark: listed apart in the source

T7 sequence (P78324 31-370): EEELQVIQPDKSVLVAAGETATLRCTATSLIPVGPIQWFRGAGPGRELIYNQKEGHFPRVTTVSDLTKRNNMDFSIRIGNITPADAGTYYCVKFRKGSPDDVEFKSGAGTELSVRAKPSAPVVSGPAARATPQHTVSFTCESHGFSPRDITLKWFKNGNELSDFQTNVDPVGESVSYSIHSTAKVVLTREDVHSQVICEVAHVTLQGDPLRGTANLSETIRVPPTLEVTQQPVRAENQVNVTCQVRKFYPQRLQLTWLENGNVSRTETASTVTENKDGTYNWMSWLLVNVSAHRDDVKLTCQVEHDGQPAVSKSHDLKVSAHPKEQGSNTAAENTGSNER
T2 sequence (P78324 31-370 limits assumed): as the sequence (P78324 31-370) above
T1 sequence (P78324 31-504): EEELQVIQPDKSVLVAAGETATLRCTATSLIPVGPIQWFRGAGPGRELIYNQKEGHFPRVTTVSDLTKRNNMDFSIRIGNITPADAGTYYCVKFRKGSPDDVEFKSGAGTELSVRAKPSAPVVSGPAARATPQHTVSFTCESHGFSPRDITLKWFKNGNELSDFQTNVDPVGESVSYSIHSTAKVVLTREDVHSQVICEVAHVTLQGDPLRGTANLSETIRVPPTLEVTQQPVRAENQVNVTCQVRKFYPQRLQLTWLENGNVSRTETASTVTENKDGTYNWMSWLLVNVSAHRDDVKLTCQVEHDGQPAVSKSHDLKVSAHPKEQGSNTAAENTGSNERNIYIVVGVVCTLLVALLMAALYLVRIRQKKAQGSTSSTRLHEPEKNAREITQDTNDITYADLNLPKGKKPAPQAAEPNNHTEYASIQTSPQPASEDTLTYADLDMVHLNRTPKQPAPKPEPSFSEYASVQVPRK
T4 sequence (P78324 31-373 limits assumed): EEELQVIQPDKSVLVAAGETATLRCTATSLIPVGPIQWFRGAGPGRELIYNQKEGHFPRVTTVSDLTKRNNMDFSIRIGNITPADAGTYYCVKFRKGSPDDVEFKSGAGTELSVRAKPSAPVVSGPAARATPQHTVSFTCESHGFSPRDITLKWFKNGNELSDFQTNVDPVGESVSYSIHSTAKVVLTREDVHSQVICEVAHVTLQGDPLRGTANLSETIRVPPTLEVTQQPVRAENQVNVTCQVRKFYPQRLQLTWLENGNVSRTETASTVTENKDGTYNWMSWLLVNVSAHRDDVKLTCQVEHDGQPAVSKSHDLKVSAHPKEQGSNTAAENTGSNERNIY

B1: mAb 14.70.2 (antibody, human IgG4, V domains shown)
VH: EVQLLESGGGLVQPGGSLRLSCAASGFTFSSYAMSWVRQAPGKGLEWVSTISDYGGSYTYYADSVKGRFTISRDNSKNTLYLQMNSLRAEDTAVYYCAKPPYDDYYGGFAYWGQGTLVTVSS
VL: DIQLTQSPSSLSASVGDRVTITCRASKSVSSSGYSYMHWYQQKPGKAPKLLIYLASNLESGVPSRFSGSGSGTDFTLTISSVQPEDFATYYCQHNRELPCTFGQGTKLEIK
notes: also called h3F9 H1/L2; h3F9 IgG4
B1 was tested. Which EC50 [1] did it give?
Its EC50 is 0.968 nM.

What about the IC50 [2] of the same binder?
The IC50 was 2.19 nM.

And the Kd [3]?
The Kd was 20 nM.

And the koff [3]?
The koff was 0.0022 s⁻¹.

What about the kon [3] of the same binder?
The kon was 110000 M⁻¹ s⁻¹.

B2: mAb 14.70.4 (antibody, human IgG4, V domains shown)
VH: B1 VH with S49A, K99R
VL: B1 VL with L4M, V82L
notes: also called h3F9 H2/L1; h3F9 IgG4
Which results are given for B2?
EC50 [1]: 1.61 nM; IC50 [2]: 4.61 nM; Kd [3]: 11 nM; koff [3]: 0.00094 s⁻¹; kon [3]: 86000 M⁻¹ s⁻¹

B3: anti-SIRPA antibody 9C2 (antibody, V domains shown)
VH: EFQLQQSGAELVKPGASVKISCKASGYSLTGYNMNWVKQSRGKSLEWIGNINPHYGSSTYNQNFKDKATLTVDKSSSAAYMQFNSLTSEDSAVYYCAREGYDGVFDYWGQGTTLTVSS
VL: QIVLSQSPAILSASPGEKVTMTCRASSSVSYMHWYQQKPGSSPKPWIYVTSNLASGVPTRFSGSGSGTSYSLTISRVEAEDAATYYCQQWSSNPRTFGGGTKLEIK
notes: described in PCT/US2017/65366; also called mAb 9C2
With B3 as the binder, how does the EC50 [4] read?
The EC50 was 7.44 nM.

B4: mouse anti-SIRPA antibody m3F9 (antibody, mouse IgG1, V domains shown)
VH: EVKLVESGGGLVKPGGSLKLSCAASGFTFSSYAMSWVRQTPEKRLEWVATISDYGGSYTYYPDSVKGRFTISRDNAKYTLYLQMSSLRSEDTALYYCARPPYDDYYGGFAYWGQGTLVTVSA
VL: DIVLTQSPASLAVSLGQRATISCRASKSVSSSGYSYMHWYQQKPGQPPKLLIYLASNLESGVPARFSGSGSGTDFTLNIHPVEEEDAATYYCQHNRELPCTFGGGTKLEIK
notes: hybridoma-derived murine IgG1; also called Parental m3F9 IgG1; 3F9 mIgG1
What does the source list for B4?
EC50 [4]: 0.658 nM; EC50 (huSIRPA v.2 NP542970.1): 0.695 nM; EC50 (cynoSIRPA XPO15313153.1): 1.09 nM; binding result (rat SIRPA): no binding; EC50 [5]: 0.72 nM; EC50 [1]: 2.1 nM; IC50 [2]: 11.5 nM; Kd [6]: 18 nM; koff [6]: 0.001 s⁻¹; kon [6]: 50800 M⁻¹ s⁻¹

B5: 3F9-22-huIgG1 PS (antibody)
heavy: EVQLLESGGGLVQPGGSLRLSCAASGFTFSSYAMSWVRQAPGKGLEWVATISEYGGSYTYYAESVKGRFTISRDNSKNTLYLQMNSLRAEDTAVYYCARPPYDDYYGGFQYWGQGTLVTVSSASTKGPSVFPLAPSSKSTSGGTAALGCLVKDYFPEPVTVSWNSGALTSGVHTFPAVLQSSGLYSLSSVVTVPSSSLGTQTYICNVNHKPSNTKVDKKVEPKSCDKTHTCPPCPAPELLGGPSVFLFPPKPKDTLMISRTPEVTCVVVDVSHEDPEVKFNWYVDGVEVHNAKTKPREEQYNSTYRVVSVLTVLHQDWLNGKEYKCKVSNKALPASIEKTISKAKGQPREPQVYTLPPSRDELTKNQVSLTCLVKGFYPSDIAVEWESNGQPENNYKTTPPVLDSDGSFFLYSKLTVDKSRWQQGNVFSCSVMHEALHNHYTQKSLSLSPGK
light: DIQLTQSPSSLSASVGDRVTITCRASKSVSSGGYSYMHWYQQKPGKAPKLLIYLASNLESGVPSRFSGSGSGTDFTLTISSVQPEDFATYYCQHNRELPVTFGQGTKLEIKRTVAAPSVFIFPPSDEQLKSGTASVVCLLNNFYPREAKVQWKVDNALQSGNSQESVTEQDSKDSTYSLSSTLTLSKADYEKHKVYACEVTHQGLSSPVTKSFNRGEC
How did the “IC50 (nM), SIRPA downregulation on human monocyte-derived macrophages” value [7] turn out when B5 was run?
Its value is 0.047 nM.

And the “Max % DR, SIRPA, human monocyte-derived macrophages” value [7]?
Its value is 73.8%.

And the “EC50 (nM), phagocytosis of A375 cells by primary human macrophages” value [8]?
Its value is 0.114 nM.

What about the “Max, fold increase in phagocytosis over baseline activity” value [8] of the same binder?
Its value is 2.07 fold.
